T1: Streptococcus pneumoniae surface adhesin A (PsaA) protein (Streptococcus pneumoniae, UniProt P0A4G2 20-309)
T1 construct: also called Pneumococcal surface adhesin A; recombinant PsaA
T1 sequence: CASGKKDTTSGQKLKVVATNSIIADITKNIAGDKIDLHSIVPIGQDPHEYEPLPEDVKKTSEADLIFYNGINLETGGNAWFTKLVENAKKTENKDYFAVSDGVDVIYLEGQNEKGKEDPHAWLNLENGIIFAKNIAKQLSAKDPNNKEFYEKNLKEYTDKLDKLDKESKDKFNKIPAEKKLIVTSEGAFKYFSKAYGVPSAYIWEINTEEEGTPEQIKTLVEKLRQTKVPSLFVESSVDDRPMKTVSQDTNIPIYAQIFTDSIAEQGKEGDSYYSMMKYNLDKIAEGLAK

B1: Anti-PsaA 1-15E5 (antibody, V domains shown)
VH: EVQLVESGGGLVQPGGSLRLSCAASGFTFNIFGMSWVRQAPGKGLEWVANIKQDGSEKYYVDSVKGRFTISRDNAKNSLYLQMNSLRAEDTAVYYCARDRFYYGSGSYYYYYNGMDVWGQGTTVTVSS
VL: EIVLTQSPATLSLSPGERATLSCRASQSVSSYLAWYQQKPGQAPRLLIYDASNRATGIPARFSGSGSGTDFTLTISSLEPEDFAVYYCQQRSNWPLTFGGGTKVEI
notes: Fully human monoclonal antibody (HuMAb-Mouse), kappa light chain; also called clone 1-15E5.2.1; 1-1-15E5
B2: Anti-PsaA 7-1G9 (antibody, V domains shown)
VH: QVRLQQWGAGLLKPSETLSLTCAVFGGSFSGFSWSWIRQTPGKGLEWIGEIDYRGSTNYNPSLKSRVTILRDTSRSQFSLKLSSVTAADSAVFYCARGGPRFDYWGQGTLVTVSS
VL: DIQMTQSPSSLSASVGDRVTITCRASQGISSWLAWYQQKPEKAPESLIYVASSLQSGVPSRFSGSGSGTDFTLTISSLQPEDFATYYCQQYNSYPPTFGQGTKVEIK
notes: Fully human monoclonal antibody (HuMAb-Mouse), kappa light chain; also called clone 7-1G9.1
B3: Anti-PsaA 5-9A7 (antibody, V domains shown)
VH: EVQLVESGGGLVQPGGSLRLSCAASGFTFSSFWMSWVRQAPGKGLEWVANIKQDGSEKFYVDSVKGRFTISRDNAKNSLYLQMNSLRAEDTAVYYCARDRITMVRPYYYFYNGLDVWGQGTTVTVSS
VL: EIVLTQSPATLSLSPGERATLSCRASQSVSSYLAWYQQKPGQAPRLLIYDASNRATGIPARFSGSGSGTDFTLTISSLEPEDFAVYYCQQRSNWPPFTFGPGTKVDIK
notes: Fully human monoclonal antibody (HuMAb-Mouse), kappa light chain; also called clone 5-9A7
B4: F(ab′)2 fragment of the anti-PsaA Ab 5-9A7 (other)
VH: B3 VH
VL: B3 VL
notes: F(ab′)2 made by pepsin digestion; also called anti-PsaA F(ab′)2; 5-9A7 F(ab′)2

Experiments:
[1] = target: T1, Streptococcus pneumoniae surface …; experiment: SPR (Biacore 3000), PsaA amine-coupled on CM5 chip, antibody in flow, 1:1 Langmuir fit
[2] = target: T1, Streptococcus pneumoniae surface …; experiment: whole-bacteria ELISA, strain R6, Ab 5 µg/ml
[3] = target: T1, Streptococcus pneumoniae surface …; experiment: whole-bacteria ELISA, strain R6, Ab 50 ng/ml
[4] = target: T1, Streptococcus pneumoniae surface …; experiment: whole-bacteria ELISA, strain R6, Ab 0.5 µg/ml
[5] = target: T1, Streptococcus pneumoniae surface …; experiment: whole-bacteria ELISA, strain 6B, Ab 0.5 µg/ml
[6] = target: T1, Streptococcus pneumoniae surface …; experiment: whole-bacteria ELISA, strain 8, Ab 0.5 µg/ml
[7] = target: T1, Streptococcus pneumoniae surface …; experiment: whole-bacteria ELISA, strain 23F, Ab 0.5 µg/ml
[8] = target: T1, Streptococcus pneumoniae surface …; experiment: whole-bacteria ELISA, strain 12F, Ab 0.5 µg/ml
[9] = target: T1, Streptococcus pneumoniae surface …; experiment: whole-bacteria ELISA, strain 14, Ab 0.5 µg/ml
[10] = target: T1, Streptococcus pneumoniae surface …; experiment: whole-bacteria ELISA, strain 3, Ab 0.5 µg/ml
[11] = target: T1, Streptococcus pneumoniae surface …; experiment: whole-bacteria ELISA, strain 4, Ab 0.5 µg/ml
[12] = target: T1, Streptococcus pneumoniae surface …; experiment: whole-bacteria ELISA, strain 1, Ab 0.5 µg/ml
[13] = target: T1, Streptococcus pneumoniae surface …; experiment: whole-bacteria ELISA, strain R6, Ab 0.5 ng/ml
[14] = target: T1, Streptococcus pneumoniae surface …; experiment: whole-bacteria ELISA, strain 7F, Ab 0.5 µg/ml
[15] = target: T1, Streptococcus pneumoniae surface …; experiment: whole-bacteria ELISA, strain 9V, Ab 0.5 µg/ml
[16] = target: T1, Streptococcus pneumoniae surface …; experiment: whole-bacteria ELISA, strain D39, Ab 0.5 µg/ml
[17] = target: T1, Streptococcus pneumoniae surface …; experiment: whole-bacteria ELISA, strain R6, Ab 5 ng/ml
[18] = target: T2, fusion protein consisting of soluble CD64 linked to the Fc portion of human IgM (human, UniProt P12314 16-292; P01871 106-453, limits assumed); experiment: bispecific sandwich ELISA: coated recombinant PsaA, detection with soluble CD64-IgM fusion and AP anti-human IgM
T2 construct: Used as a culture supernatant; also called soluble CD64-IgM fusion protein
T2 sequence (P12314 other isoform, or with tags, fused parts or gaps limits assumed): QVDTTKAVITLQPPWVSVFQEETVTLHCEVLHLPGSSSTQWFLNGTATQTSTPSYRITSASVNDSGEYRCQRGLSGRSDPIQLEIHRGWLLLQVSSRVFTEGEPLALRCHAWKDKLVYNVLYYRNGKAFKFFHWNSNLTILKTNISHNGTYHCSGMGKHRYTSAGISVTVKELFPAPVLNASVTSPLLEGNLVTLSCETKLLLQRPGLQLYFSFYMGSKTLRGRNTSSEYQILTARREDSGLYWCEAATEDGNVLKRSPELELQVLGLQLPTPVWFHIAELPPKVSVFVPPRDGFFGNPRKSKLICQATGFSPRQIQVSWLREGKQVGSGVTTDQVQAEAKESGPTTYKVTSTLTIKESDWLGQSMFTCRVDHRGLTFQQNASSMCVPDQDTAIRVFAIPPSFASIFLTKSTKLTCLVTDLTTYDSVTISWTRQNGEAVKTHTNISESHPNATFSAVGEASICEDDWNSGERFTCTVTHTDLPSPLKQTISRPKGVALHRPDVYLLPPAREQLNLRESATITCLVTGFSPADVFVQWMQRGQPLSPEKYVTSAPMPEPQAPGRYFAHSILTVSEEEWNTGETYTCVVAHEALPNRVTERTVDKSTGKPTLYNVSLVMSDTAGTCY

| Binder | Kd [1] [nM] | koff [1] [s⁻¹] | kon [1] [M⁻¹ s⁻¹] | R6 ELISA (corrected) [2] | R6 ELISA (corrected) [3] | ELISA (0.5 µg/ml) (corrected) [4] | R6 ELISA (corrected) [4] | ELISA (0.5 µg/ml) (corrected) [5] | ELISA (0.5 µg/ml) (corrected) [6] | ELISA (0.5 µg/ml) (corrected) [7] | ELISA (0.5 µg/ml) (corrected) [8] | ELISA (0.5 µg/ml) (corrected) [9] | ELISA (0.5 µg/ml) (corrected) [10] | ELISA (0.5 µg/ml) (corrected) [11] | ELISA (0.5 µg/ml) (corrected) [12] | R6 ELISA (corrected) [13] | ELISA (0.5 µg/ml) (corrected) [14] | ELISA (0.5 µg/ml) (corrected) [15] | ELISA (0.5 µg/ml) (corrected) [16] | R6 ELISA (corrected) [17] | other results |
| --- | --- | --- | --- | --- | --- | --- | --- | --- | --- | --- | --- | --- | --- | --- | --- | --- | --- | --- | --- | --- | --- |
| B1 | 0.118 | 6.72e-06 | 57100 | – | – | – | – | – | – | – | – | – | – | – | – | – | – | – | – | – | – |
| B2 | 0.0634 | 2.87e-05 | 435000 | 1.36 | 1.78 | 1.38 | 1.68 | 0.4 | 1.5 | 0.36 | 1.46 | 1.32 | 1.24 | 0.33 | 0.35 | 0.31 | 1.06 | > 3 | 0.68 | 0.54 | – |
| B3 | 0.0374 | 1.41e-05 | 377000 | 1.39 | 1.32 | 1.39 | 1.65 | 0.39 | 1.52 | 0.37 | 1.51 | 1.42 | 1.31 | 0.33 | 0.4 | 0.26 | 1.17 | > 3 | 0.66 | 0.41 | – |
| B4 | – | – | – | – | – | – | – | – | – | – | – | – | – | – | – | – | – | – | – | – | binding result [18]: no binding (tested: 1 µg/ml) |

From patent US20070003561A1 (published 2007)
